Numbering of substitutions follows the chain as printed.
Assays:
[1] = tested on: T1, (KLTCLASYCWLFG)2═N-O-(CH2)3-O-N═
T1 sequence: KLTCLASYCWLFG

[2] = tested on: T2, AKQGRPISPDrRAAGKLTCLASYCWLFWTGIA
T2 sequence: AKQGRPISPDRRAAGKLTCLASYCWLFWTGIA

[3] = tested on: T3, CNPRGD-Tyr(OEt)-RC-PEG16-Lys(PEG2-Biotin)-PEG16-rRAPGKLTCLASYCWLFWTGIA
T3 sequence: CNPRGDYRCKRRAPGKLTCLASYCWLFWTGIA

[4] = tested on: T4, CRRAPGKLQCLASYCWLFWTGIAC
T4 sequence: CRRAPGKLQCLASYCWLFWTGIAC

[5] = tested on: T5, KATCLASYCWLF
T5 sequence: KATCLASYCWLF

[6] = tested on: T6, KKTCLASYCWLF
T6 sequence: KKTCLASYCWLF

[7] = tested on: T7, KL-MeThr-CLASYCWLF
T7 sequence: KLTCLASYCWLF

[8] = tested on: T8, KLTCAASYCWLF
T8 sequence: KLTCAASYCWLF

[9] = tested on: T9, KLTCLASACWLF
T9 sequence: KLTCLASACWLF

[10] = tested on: T10, KLTCLASYCW-MeLeu-F
T10 sequence: KLTCLASYCWLF

[11] = tested on: T11, KLTCLASYCWAF
T11 sequence: KLTCLASYCWAF

[12] = tested on: T12, KLTCLASYCWLFK
T12 sequence: KLTCLASYCWLFK

[13] = tested on: T13, KLTCLSSYCWLF
T13 sequence: KLTCLSSYCWLF

[14] = tested on: T14, MQIRQAHQPR RSAPQ KLTCLASYCWLFWTGIA
T14 sequence: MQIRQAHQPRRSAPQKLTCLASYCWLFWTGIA

[15] = tested on: T15, PEG4-RRAPGKLTCLASYCWLFWTGIA
T15 sequence: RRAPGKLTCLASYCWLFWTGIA

[16] = tested on: T16, PRIRTVGSGSRSASGKLTCLASYCWLFWTGIA
T16 sequence: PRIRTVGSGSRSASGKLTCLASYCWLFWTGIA

[17] = tested on: T17, PRSRTVGPGSRSASGKLTCLASYCWLFWTGIA
T17 sequence: T16 sequence with I3S, S8P

[18] = tested on: T18, RRAAGKLQCLASYCWLFWTGIA
T18 sequence: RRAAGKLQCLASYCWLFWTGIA

[19] = tested on: T19, RRAKGKLQCLASYCWLFWTGIA
T19 sequence: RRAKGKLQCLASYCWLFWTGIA

[20] = tested on: T20, RRAPGCLTALASYCWLFWTGIA-CONH2
T20 sequence: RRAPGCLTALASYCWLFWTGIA

[21] = tested on: T21, RRAPGKLQCLASYCWLFWAGIA
T21 sequence: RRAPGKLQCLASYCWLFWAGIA

[22] = tested on: T22, RRAPGKLQCLASYCWLFWTG-(1-Nal)-A
T22 sequence: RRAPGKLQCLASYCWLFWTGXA

[23] = tested on: T23, RRAPGKLQCLASYCWLFWTGAA
T23 sequence: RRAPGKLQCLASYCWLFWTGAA

[24] = tested on: T24, RRAPGKLQCLASYCWLFWTGFA
T24 sequence: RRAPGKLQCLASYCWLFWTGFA

[25] = tested on: T25, RRAPGKLQCLASYCWLFWTGIAAAAGAP
T25 sequence: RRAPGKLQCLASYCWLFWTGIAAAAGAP

[26] = tested on: T26, RRAPGKLTCLA-MeSer-YCWLFWTGIA
T26 sequence: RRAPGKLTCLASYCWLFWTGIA

[27] = tested on: T27, RRAPGKLTCLASYCWK(PEG2-Biotin)FWTGIA
T27 sequence: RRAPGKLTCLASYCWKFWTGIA

[28] = tested on: T28, RRAPGKLTCLASYCWLF EPGIA QPYAKSPTRN
T28 sequence: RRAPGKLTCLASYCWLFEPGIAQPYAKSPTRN

[29] = tested on: T29, RRAPGKLTCLASYCWLF WAGFA ASTLAPAHHQ
T29 sequence: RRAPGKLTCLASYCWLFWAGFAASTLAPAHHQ

[30] = tested on: T30, RRAPGKLTCLASYCWLFWTGIA-COOH
T30 sequence: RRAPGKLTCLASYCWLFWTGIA

[31] = tested on: T31, RRAPGKLTCLASYCWLFWTGIK(PEG2-Biotin)
T31 sequence: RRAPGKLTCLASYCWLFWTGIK

[32] = tested on: T32, RRAPGKLTCLASYCWLFWtGIA
T32 sequence: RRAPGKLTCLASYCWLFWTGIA

[33] = tested on: T33, RRAPGKLTCLASyCWLFWTGIA
T33 sequence: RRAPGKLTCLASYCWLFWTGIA

[34] = tested on: T34, RRAPGKLTCLAsYCWLFWTGIA
T34 sequence: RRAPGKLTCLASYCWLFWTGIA

[35] = tested on: T35, RRAPGKLTClASYCWLFWTGIA
T35 sequence: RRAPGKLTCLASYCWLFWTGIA

[36] = tested on: T36, RRK(PEG2-Biotin)PGKLTCLASYCWLFWTGIA
T36 sequence: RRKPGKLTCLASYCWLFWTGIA

[37] = tested on: T37, SGRGGKLTCQASFCQLFGNGLS
T37 sequence: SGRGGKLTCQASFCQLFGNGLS

[38] = tested on: T38, SKQGRPISADrRAAGKLTCLASYCWLFWTGIA
T38 sequence: T2 sequence with A1S, P9A

[39] = tested on: T39, SLISMTNPSG RRVPG KLTCLASYCWLFWTGIA
T39 sequence: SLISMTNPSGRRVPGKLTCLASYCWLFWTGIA

[40] = tested on: T40, SRIRTVGPGSRSASGKLTCLASYCWLFWTGIA
T40 sequence: T16 sequence with P1S, S8P

[41] = tested on: T41, TGS-KLTCLASYCWLF-APG
T41 sequence: TGSKLTCLASYCWLFAPG

[42] = tested on: T42, TSGPFGFGGS SRAQG KLTCLASYCWLFWTGIA
T42 sequence: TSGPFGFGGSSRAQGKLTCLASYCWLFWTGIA

[43] = tested on: T43, compound 10
T43 sequence: KLTCLASYCWLFWTGIA

[44] = tested on: T44, compound 1
T44 sequence: KLTCLASYCWLF

[45] = tested on: T45, compound 24
T45 sequence: T2 sequence with A1S

[46] = tested on: T46, compound 2
T46 sequence: KLTCLASYCWLF

[47] = tested on: T47, compound C
T47 sequence: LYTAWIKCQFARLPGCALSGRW

[48] = tested on: T48, rRAPGKLTCLASYCWLFWTGIA-COOH
T48 sequence: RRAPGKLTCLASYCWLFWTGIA

[49] = tested on: T49, rRAPGKLTCLASYCWLFWTGIA-PEG16-Lys(PEG2-Biotin)-PEG16
T49 sequence: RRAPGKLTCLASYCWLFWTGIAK

[50] = tested on: T50, ═N-O-(CH2)3-O-N═(COCH2CH2CO-KLTCLASYCWLF)2
T50 sequence: KLTCLASYCWLF

human Factor IXa
0.00044 min⁻¹: kcat (min^-1) of hFIXa for FX, scrambled control at 10.0 µM [47]
0.31: Δ KM (Km compound/Km buffer) [44]
1360 M⁻¹ s⁻¹: (kcat/KM)app (M^-1s^-1) of FIXa on the chromogenic substrate, compound 1 at 10 µM [44]
0.0144 min⁻¹: kcat (min^-1) of hFIXa for FX, compound at 3 µM [44]
99 nM: KM (nM) of hFIXa for FX [47]
> 3: Vmax, FXa generation assay [1] | Vmax, FXa generation assay [2] | Vmax, FXa generation assay [3] | Vmax, FXa generation assay [12] | Vmax, FXa generation assay [15] | Vmax, FXa generation assay [16] | Vmax, FXa generation assay [17] | Vmax, FXa generation assay [21] | Vmax, FXa generation assay [23] | Vmax, FXa generation assay [27] | Vmax, FXa generation assay [38] | Vmax, FXa generation assay [40] | Vmax, FXa generation assay with hFIXa [45] | Vmax, FXa generation assay [46] | Vmax, FXa generation assay with hFIXa [46] | Vmax, FXa generation assay [49] | Vmax, FXa generation assay [50]
> 0.6: Vmax, FXa generation assay with hFIXa [47]
> 2: Vmax, FXa generation assay [4] | Vmax, FXa generation assay [5] | Vmax, FXa generation assay [9] | Vmax, FXa generation assay [10] | Vmax, FXa generation assay [11] | Vmax, FXa generation assay [13] | Vmax, FXa generation assay [14] | Vmax, FXa generation assay [18] | Vmax, FXa generation assay [22] | Vmax, FXa generation assay [24] | Vmax, FXa generation assay [28] | Vmax, FXa generation assay [29] | Vmax, FXa generation assay [30] | Vmax, FXa generation assay [33] | Vmax, FXa generation assay [39] | Vmax, FXa generation assay [41] | Vmax, FXa generation assay with hFIXa [44] | Vmax, FXa generation assay [48]
4.22 mOD/min min: Vmax (mOD/min min), with phospholipids [46]
(++): Vmax, FXa generation assay; (++) means 1-2 [6] | Vmax, FXa generation assay; (++) means 1-2 [7] | Vmax, FXa generation assay; (++) means 1-2 [8] | Vmax, FXa generation assay; (++) means 1-2 [19] | Vmax, FXa generation assay; (++) means 1-2 [20] | Vmax, FXa generation assay; (++) means 1-2 [25] | Vmax, FXa generation assay; (++) means 1-2 [26] | Vmax, FXa generation assay; (++) means 1-2 [31] | Vmax, FXa generation assay; (++) means 1-2 [32] | Vmax, FXa generation assay; (++) means 1-2 [34] | Vmax, FXa generation assay; (++) means 1-2 [35] | Vmax, FXa generation assay; (++) means 1-2 [36] | Vmax, FXa generation assay; (++) means 1-2 [37] | Vmax, FXa generation assay; (++) means 1-2 [42] | Vmax, FXa generation assay with hFIXa; (++) means 1-2 [43]
3.05 mOD/min min: Vmax (mOD/min min), without phospholipids [46]
3.98 mOD/min min: Vmax (mOD/min min), with phospholipids [44]
2.6 mOD/min min: Vmax (mOD/min min), without phospholipids [44]
